Entries after “also recorded” stand apart in the source; their conditions may differ.
Columns and labels:
[1] = test system: pMAP38; test: Western blot of phosphorylated MAP38 in COLO201; type: cell-based; details: COLO201, 72 h of treatment
[2] = test system: Metalloproteinase 7 (MMP7); test: Western blot of Metalloproteinase 7 in COLO201; type: cell-based; details: COLO201, 72 h of treatment
[3] = target: T1, tmCLIC1 (Homo sapiens, UniProt O00299); test: Immunofluorescence on monocytes isolated from peripheral blood; type: cell-based; details: monocytes of Alzheimer's disease patients and controls, fluorescent secondary antibody
T1 construct: monocytes isolated from the peripheral blood of patients with a diagnosis of Alzheimer's disease and controls; endogenous in cells; host or cells: human peripheral blood monocytes (Alzheimer's disease patients and healthy controls)
Description: For each individual, 8 ml of peripheral blood was collected in BD Vacutainer® CPT™ test tubes with sodium citrate, gently mixed by inversion and centrifuged at room temperature for 20 min. at 1600 rpm to separate three distinct phases: a bottom layer containing red blood cells, an intermediate layer containing mononuclear cells, and a top layer containing plasma. The layer of mononuclear cells was collected together with part of the plasma and transferred to a centrifuge tube. PBS was added until a final volume of […] was reached, and it was gently mixed by inversion and centrifuged for 10 min. at 300 rpm. The resulting pellet underwent two further washes in 5 ml of PBS, and was used for the subsequent experiments.
The pellet of mononuclear cells isolated from the blood was counted and divided into samples containing an equal number of cells (1×10^6 cells/sample). Each sample was resuspended in 90 μl of cold staining solution (0.5% BSA, 2 mM EDTA in PBS) and, after the addition of 10 μl of FcR blocker (Miltenyi Biotec), was incubated in ice for 15 min. 10 μl of primary antibody diluted in staining solution was then added, and the sample was incubated for 1 h in ice. At the end of the incubation period, each sample was washed with 1 ml of cold staining solution and centrifuged at 350 rpm for 5 min. […]

[4] = test system: COLO201; test: Trans well migration and invasion assay; type: cell-based; details: COLO201 WT, 72 h
Description: The overexpression of tmCLIC1 in the most aggressive cell lines of colorectal cancer and its pivotal role in regulation of cell cycle progression and proliferation, opens a question on the function of tmCLIC1 activity on migration and invasion potential of CRCs, that makes colorectal cancer still uncurable. We performed a Trans well assay to understand whether CLIC1 impairment could affect the migration and invasion potential of COLO201. Cells were plated after 60 hours of serum deprivation on a porous membrane, permeable only to growth factor, in contact to complete medium. The resulting chemo-attractant gradient leads the migrative cells to cross the membranes that are then stained with DAPI to visualize the nuclei. […] For invasion assays, we coated with Matrigel the porous membrane to mimic the extracellular matrix that cells must disrupt to invade tissues and mucosa.
Cells were plated after 60 hours of serum deprivation on a […] porous membrane, permeable only to growth factor, in contact to complete medium. Membranes were cut, stained with DAPI dye, and included with mowiol. Cover glasses were examined under Zeiss Examiner A1 fluorescence microscope with a Zeiss 40×/0.75 NA water immersion lens.

[5] = test system: microglial cells; test: Growth curves of microglial cells stimulated with β-amyloid; type: cell-based, mice; details: 1 μM β-amyloid, 4-day observation period
Description: The microglial cells used (BV-2) originated from an immortalised cell line deriving from C57BL/6 mice and commonly marketed. The culture medium used was RPMI (Thermo Fisher Scientific) with the addition of 10% FBS (Euroclone) and 1% Pen/Strep ([…], Thermo Fisher Scientific).
The cells were seeded in 24-well plates (20,000 cells/well) and counted after 24, 48, 72 and 96 hours to construct the growth curve. The cells were collected and centrifuged, and the resuspended pellet was diluted 1:1 with Trypan Blue. An automated counter (Countess II, Thermo Fisher Scientific) was used to count the cells. All data were normalized to their controls.

[6] = test system: human glioblastoma cells; test: ROS production in human glioblastoma cells in primary culture; type: cell-based
Description: In the subsequent functional experiment, ROS production was measured over time. The graph in FIG. 11 relates to the acquisition of fluorescence signals proportional to the amount of cytoplasmic ROS in glioblastoma cells. The cells were treated with both the antibody and the tmCLIC1 channel blocker.

[7] = target: T2, peptide […] (amino acids 3-24 of the CLIC1 protein) (Homo sapiens, UniProt O00299); test: PEPperMAP epitope mapping on CLIC1 peptide microarrays; type: binding
T2 construct: conducted against the peptide […]; (amino acids 3-24 of the CLIC1 protein); host or cells: synthetic peptide microarray (PEPperMAP)
Description: PEPperMAP epitope Mapping® of the tmCLIC1omab antibody was conducted against the peptide […] (amino acids 3-24 of the CLIC1 protein) translated to linear peptides consisting of 5, 10 and 15 amino acids with peptide-peptide overlaps of 4, 9 and 14 amino acids for high-resolution epitope data. The resulting CLIC1 peptide microarrays were incubated with the antibody samples at concentrations of 1 μg/ml, 10 μg/ml, 100 μg/ml and 250 μg/ml in incubation buffer, followed by staining with secondary and control antibodies and reading with a LI-COR Odyssey Imaging System. The intensity of the points and peptide annotation were quantified with the PepSlide® Analyzer.

[8] = test system: microglial cells; test: ROS production in cultured microglial cells; type: cell-based, mice; details: after addition of β-amyloid and antibody
Description: A second functional experiment performed on microglial cells involved measuring the production of reactive oxygen species (ROS), which contribute to creating a highly oxidising environment harmful to the neurones. Once again (FIG. 5), a physiological increase in cytoplasmic ROS was recorded (baseline), with ROS production after addition of β-amyloid, and finally, cell oxidation during the simultaneous presence of amyloid peptide and the tmCLIC1omab antibody.

[9] = test system: COLO201; test: COLO201 spheroids, 3D culture; type: cell-based; details: treated 24 to 96 hours, area normalized on initial area
Description: To evaluate whether tmCLIC1omab is able to penetrate across tumor spheroids, a 3D culture was performed. After the complete formation of spheroids, treatments were added and the area was measured every 24 hours up to 96 hours. The area at each time point was then normalized on the initial spheroids' area.
Spheroids were formed with hanging-drop method and then plated in rounded 96 plates coated with 5% of agar. After the complete formation of spheroids, treatments were added and the area was measured every 24 hours up to 96 hours. The area at each time point was then normalized on the initial spheroids' area.

B1: tmCLIC1omab: IgG1 class antibody containing the heavy chain variable region SEQ ID NO:13 and the light chain variable region SEQ ID NO:14 (antibody, listed as Mus musculus, V domains shown)
VH: EVMLVESGGGLVKPGGSLKLSCAASGFAFSNYAMSWIRQIPEKRLEWVATISTGGSSTFYPDSVKGRFTISRDNAKNTLYLQMSSLRSEDTAMYYCTRHAYEAWFAYWGQGTLVTVSA
VL: QIVLTQSPALMSASPGEKVTMTCSASSSVSYMYWYQQRPRSSPKPWIYLTSTLASGVPTRFSGSGSGTSYSLTISSMEAEDAATYYCQQWNSHPLTFGSGTKLEIK
- expression of pMAP38 [1]: downregulated
- expression of Metalloproteinase 7 [2]: mainly abolished
- specificity of staining on monocytes [3]: specificity of the antibody for the membrane protein
- migration (number of migrative nuclei) versus control [4]: significant lower number of migrative nuclei
- invasion (number of invasive nuclei) versus control ([4]; Matrigel-coated membrane): the same behavior seen for migration assay
- cell proliferation in the presence of β-amyloid [5]: completely inhibited
- fall in ROS production ([6]; FIG. 11 legend, versus control): about fourfold
- reduction of the slope of the ROS increase curve ([6]; fluorescence signals proportional to cytoplasmic ROS): about fivefold
- binding to the QVELFV sequence ([7]; linear peptide microarray): with lower affinity, binds the QVELFV sequence (SEQ ID NO:27) well
- epitope sequence for which the antibody exhibits specificity ([7]; linear peptides of 5, 10 and 15 amino acids, antibody 1-250 μg/ml): QVELF
- ROS production [8]: falls to the control level
- spheroids' area / proliferation of spheroids versus control [9]: significantly smaller compared to the control from 48 h; also recorded: impair proliferation of spheroids significantly after 48 hours
